The RNAGym collection of RNA variant scans (doi:10.1073/pnas.2313332121)

B1: TPR t1 (parent)
chain: GACCAAUCUGCCCUCAGAGCUCGAGAACAUCUUCGGAUGCAGAGGAGGCAGGCUUCGGUGGCGCGAUAGCGCCAACGUCCUCAACCUCCAAUGCAUCCCACCACAUGAUGAUGCCUGAAGAGCCUUGGUUUUUUG

Variants of: B1
Assay: polymerase ribozyme fitness, log enrichment relative to wild type (log ratio); higher = more active; in vitro selection for triplet polymerase activity
Procedure, shortened: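 Only genotypes with ≥10 input reads and ≥1 read per output were kept after Illumina sequencing of input and output libraries. These libraries were PCR-built, transcribed mutants of each subunit of a heterodimeric triplet polymerase ribozyme, each put through one triplicate in vitro selection round with frozen incubation at −7 °C, gel excision of extended constructs, streptavidin-bead capture and RT-PCR. Fitness is a logarithmic ratio of genotype enrichment to wild-type enrichment, from inverse-variance-weighted replicate averages, with the logarithm in base 2.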

In order of falling “polymerase ribozyme fitness (log ratio)” value:
1. GACCAAGCUGCCCUCAGAGCUCGAGAACAUCUUCGGAUGCAGAGGAGGCAGGCUUCGGUGGCGCGAUAGCGCCAACGUCCUCAACCUCCAAUGCAUCCCACCACAUGAUGAUGCCUGAAAAGCCUUGGUUUUUUG [U7G G120A]  1.99
2. GACCAAGCUGCCCUCAGAGCUCGAGAACAUCUUCGGAUGCAGAGGAGGCAGGCUUCGGUGGCGCGAUAUCGCCAACGUCCUCAACCUCCAAUGCAUCCCACCACAUGAUGAUGCCUGAAGAACCUUGGUUUUUUG [U7G G69U G122A]  0.793
3. GACCAAGCUGCCCUCAGAGCUCGAGAACAUCUUCGGAUACAGAGGAGGCAGGCUUCGAUGGCGCGAUAUCGCCAACGUCCUCAACCUCCAAUGCAUUCCACCACAUGAUGAUGCCUGAAGAGCCUUGGUUUUUUG [U7G G39A G58A G69U C97U]  0.0234
4. GACCAAGCUGCCCUCAGAGCUCGAGAACAUCUUCGGAUGCAGAGGAGGCAGGCUUCGGUGGCGCGAUAGCGCCAACGUCCUCAACCUCCAAUGCAUCCCAACACAUGAUGAUGCCUGAAGAGCCUUGGUUUUUUG [U7G C101A]  -0.172
5. GACCAAGCUGCCCUCAGAGCUCGAGAACAUCUUCGGAUGCAGAGGAGGCAGGCUUCGCUGGCGCGAUAGCGCCAACGUCCUCAACCUCCAAUGCAUCCCACCACAAGAUGAUGCCUGAAGAGCCUUGAUUUUUUG [U7G G58C U106A G128A]  -0.568
6. GACCAAGCUGCCCUCAGAGCUCGAGAACAUCUUCGGAUGCAGAGGAGUCAGGUUUCGGUGGCGCGAUAGCGCCAACGUCCUCAACCUCCAAUGCCUCCCACCACAUGAUGAUGCCUAAAGAGCCUUGGUUUUUUG [U7G G48U C53U A95C G117A]  -1.11
7. GACCAAGCUGCCCUCAGAGCUCGAGAACAUCUUCGGAUGCAGAGGAGGCAGGCUUCGGUGGCGCGAUAGCGCCAACGUCCUCAACCUCCAAUGCAUCCCACCACAUGAUGAUGUCUGAAGAGCCUUAGUUUUUUG [U7G C114U G127A]  -1.17
8. GACCAAGCUGCCCUCAGAGCUCGAGAACAUCUUCGGAUGCAGAGGAGGCAGGCUUCGGUGGCGCGAUAGCGCCAACGUCCUCAACCUUCAAUCCAUCCCACCACAUGAUGAUGCCUGAAGAGCCUUGGUUUUUUG [U7G C88U G93C]  -1.33
9. GACCAAGCUGCCCUCAGAGCUCGAGAACAUCUUCGGAUACAGAGGAGGCAGGCUUCGGUGGCGCGAUAGCGCCAACGUCCUCAACCUCCAAUGCAUCCCACCACAUGAUGAUGGCUGAAGAGCCUUGGUUUUUUG [U7G G39A C114G]  -2.02
10. GACCAAGCUGCCCUCAGAGCUCGAGAACAUCUUCGGAUGCAGAGGAGGCACGCUCCGGUGGCGCGAUAGCGCCAACGUCCUCAACCUCCAAUGCAUCCCACCACAUGAUGAUGCCUGAAGAGCCUUGGUUUUUUG [U7G G51C U55C]  -2.32
11. GACCAAGCUGCCCUCAGAGCUCGAGAACAUCUUCGGAUGCAGAGGAGGCAGGCUUCGGUGGCUCGAUAGCGCCAACGUCCUCAACCUUCAAUCCAUCCCACCACAUGAUGAUGCCUGAAGAGCCUUGGUUUUUUG [U7G G63U C88U G93C]  -2.75
12. GACCAAGCUUCCCUAAGAGCUCGAGAACAUCUUCGGAUGCAGAGGAGGCAGGCAUCGGUGGCGCGAUAGCGGCAACGUCCUCAACCUCCAAUGCAUCCCACCAAAUGAUGAUGCCUGAAGAGCCUUGGUUUUUUG [U7G G10U C15A U54A C72G C104A]  -2.9
13. GACCAAGCUGCCCUCAGAGCUCGAGAACAUCUUCGGAUGCAGAGGAGCCAGGCUUCGGUGGCGCGAUAGCGCCAACGUCCUCAACCUCAAAUGCAUCCCACCACAUGAUGAUGCCUGAAGAGCCUUGGUUUUUUG [U7G G48C C89A]  -2.97
14. GACCAAGCUGCCCUCAGAGCUCGAGAACAUCUUCGGAUGCAGAGGAGGCAGACUUCGGUGGCGCGAUAGCGCCAACGUCCUCAACCUCCAAUGCAUCCCACCAAAUGAUGAUGGCUGAAGAGCCUUGGUUUUGUG [U7G G52A C104A C114G U133G]  -3.61
15. GACCAAGCUGCCCUCAGAGCUCGAGAACAUCUUCGGAUGCAGAGGAGGCAGGCUUCGGUGGCGCGAUAGCGCCAACGUCCUCAACCUCCAAUGCAUCCCACCACAUGAUGAUGCCUCAAGAUCCUUGGUUUUUUG [U7G G117C G122U]  -4.49
16. GACCAAGCUGCCCUCAUAGCUCGAGACCAUCUUCGGAUGCAGAGGAGGCAGGUUUAGGUGGCGCGAUAGCGCCAACGUCCUCAACCUCCAAUGCAUCCCACCACAUGAUGAUGCCUGAAGAGCCUUGGUUUUUUG [U7G G17U A27C C53U C56A]  -4.57
17. GACCAAGCUGCCCUCAGAGCUCGAGAACAUCUGCGGAUGCAGAGGAGGCAGGCUUCGGUGGCGCGAUAGCGCCAACGUCCUCAACCUCCAAUGCAUCCCACCACAUGAUGAUGCCUGAAGAGCCUUGGUUUUUUG [U7G U33G]  -5.33
18. GACCAAGCUGCCCUCAGAGCUCGAGAACAUCUUCGGAUGCAGAGGAGGCACGCUUCGGUGGCGCGAUAGCGCCAACGUCCUCAACCUCCAAUGCAUCCCACCACAUGAUGAUGCUUGAAGAGCCUUGGUUUUUUG [U7G G51C C115U]  -5.78
19. GACCAAGCUGCCCUCAGAGCUCGAGAACAUCUUCGGAUACAGAGGAGGCAGGCUUCGGUGGGGCGAUAGCGCCAACGUCCUCAACCUCCAAUGCAUCCCACCACAUGAUGAUGGCUGAAGAGCCUUGGUUUUUUG [U7G G39A C62G C114G]  -6.04
20. GACCAAGCUGCCCUCAGAGCUCGAGAACAUCUUCGGAUGCAAAGGAGGCAGGCUUCGGUGGCCCGAUAGCGCCAACGUCCACAACCUCCAAUGCAUCCCACCACAUGAAGAUGCCUGAAGAGCCUUGGUCUUUUG [U7G G42A G63C U81A U109A U130C]  -6.25
21. GACCAAGCUUCCCUAAGAGCUCGAGAACAUCUUCGGAUGCAGAGGAGGCAGGCUUAGGUGGCCAGAUAGCGCCAACGUCCUCAACCUCCAAUGCAUCCCACCACAUGAUGAUGACUGAAGUGGCUUGGUUUUUUG [U7G G10U C15A C56A G63C C64A C114A A121U C123G]  -6.92
